Laboratory results reported in patent US20110171220A1 (ISIS INNOVATION, published 2011).

Tests used:
[1] = target: T1, Monomeric soluble human PD-1 (human, UniProt Q15116 25-170, limits assumed); experiment: SPR, antibody captured by rabbit anti-mouse Fc, soluble PD-1 injected
T1 construct: also called soluble PD-1
Experimental: FIG. 12: Dissociation rates for Clone 2, 10 and 19 antibodies determined by surface plasmon resonance-based analysis. The three antibodies and a negative control (OX-7) were bound indirectly to the biosensor surface, i.e. via a covalently coupled rabbit anti-mouse Fc antibody. Monomeric soluble human PD-1 was then injected to saturating levels over the immobilized antibodies in the buffer 10 mM Hepes, 150 mM NaCl pH 7.4. Following injection of the soluble PD-1, the buffer only was injected, allowing dissociation of the bound soluble PD-1 from each of the antibodies simultaneously. Dissociation rates were fitted using Origin v.5.0 software (MicroCal Software Inc, Northampton, Mass.) after subtraction of the dissociation rate for OX-7 dissociating from the anti-mouse Fc antibody.

[2] = target: T2, human PD-1 extracellular region / murine CD28 chimera, mutant L16R, on HEK-293T cells (human; mouse, UniProt Q15116 25-170; P31041 151-218, L16R); experiment: flow cytometry on transfected HEK-293T cells
T2 construct: extracellular domain;domain: transmembrane and intracellular regions; Single-residue 'drastic' mutant of m4
T2 sequence (Q15116 other isoform, or with tags, fused parts or gaps L16R | L16R L16R): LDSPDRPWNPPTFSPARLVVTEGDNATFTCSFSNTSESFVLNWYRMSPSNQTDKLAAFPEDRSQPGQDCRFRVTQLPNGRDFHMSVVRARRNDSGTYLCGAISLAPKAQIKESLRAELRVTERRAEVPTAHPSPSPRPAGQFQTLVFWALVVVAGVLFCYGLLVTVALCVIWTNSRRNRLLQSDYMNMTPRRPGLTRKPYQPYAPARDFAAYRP
Experimental: (§1) Constructs encoding the human extracellular region of PD-1 with the transmembrane and intracellular regions of murine CD28 were cloned into the bi-cistronic mammalian expression vector pGFP2-n2 from BioSignal Packard Ltd, which also encodes GFP. Mutant constructs varying by one amino acid were prepared using the “drastic” mutagenesis approach (Davis et al. Proc Natl Acad Sci USA. 95, 5490-4 (1998)). Plasmids (2 μg/well) were transfected into HEK-293T cells in 6 well plates using Genejuice transfection reagent (Novagen; 6 μl/well). Mock and no-transfection controls were included with each experiment. Cells were harvested at 18-24 hours and stained with anti-PD1 antibodies or isotype controls at 10 μg/ml in PBS-azide for 1 h at 4° C. Cells were washed with PBS-Azide, pelleted at 1500 rpm/5 min and primary antibodies were labelled with Alexa647-conjugated donkey anti-mouse IgG (5 μg/ml) in PBS-Azide for 30 min at 4° C. Cells were washed as above and resuspended in 200 μl PBS-Azide before being analysed at the flow cytometer. Propidium iodide (5 μg/ml) was added immediately prior to analysis to identify dead cells. GFP-positive (transfected) viable cells were gated and analysed for binding of anti-PD1 antibodies. Mutants were defined as ‘knock-out’ (reducing the percentage of cells bound by the anti-PD1 antibody) or ‘knock-down’ (reducing the intensity of antibody staining relative to other PD-1 antibodies).
(§2) Following transfection, cells analysed at the flow cytometer were 85-90% viable by propidium iodide exclusion. Transfection efficiencies ranged from 15-50% (GFP⁺). Isotype controls were negative on all transfectants. […] V18R partially eliminates Clone 19 binding.

[3] = target: T3, human PD-1 extracellular region / murine CD28 chimera, mutant V18R, on HEK-293T cells (human; mouse, UniProt Q15116 25-170; P31041 151-218, V18R); experiment: flow cytometry on transfected HEK-293T cells
T3 construct: extracellular domain;domain: transmembrane and intracellular regions; Single-residue 'drastic' mutant of m4
T3 sequence (Q15116 other isoform, or with tags, fused parts or gaps V18R | V18R V18R): as the sequence (Q15116 other isoform, or with tags, fused parts or gaps L16R | L16R L16R) above, with R17L, V19R counted along it
Experimental: as §1, §2

[4] = target: T4, human PD-1 extracellular region / murine CD28 chimera, mutant R118D, on HEK-293T cells (human; mouse, UniProt Q15116 25-170; P31041 151-218, R118D); experiment: flow cytometry on transfected HEK-293T cells
T4 construct: extracellular domain;domain: transmembrane and intracellular regions; Single-residue 'drastic' mutant of m4
T4 sequence (Q15116 other isoform, or with tags, fused parts or gaps R118D | R118D R118D): as the sequence (Q15116 other isoform, or with tags, fused parts or gaps L16R | L16R L16R) above, with R17L, R119D counted along it
Experimental: as §1, §2

T1 sequence (Q15116 25-170 limits assumed): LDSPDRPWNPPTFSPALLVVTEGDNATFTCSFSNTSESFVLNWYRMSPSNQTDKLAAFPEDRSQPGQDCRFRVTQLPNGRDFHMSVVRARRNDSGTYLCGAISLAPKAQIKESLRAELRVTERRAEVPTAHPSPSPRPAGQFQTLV

Binder	binding result [1]	binding result [2]	binding result [3]	binding result [4]
Clone 2 anti-PD-1 antibody (antibody, V domains shown, The printed VH ends at ...GTSVT; also called hybridoma 08090903) VH: QVQLQQPGAELVKPGASVKLSCKASGYTFTTYYLYWVRQRPGQGLEWIGGINPSNGGTNFNEKFKSKATLTVDKSSSTAYMQLNSLTSEDSAVYYCTRRDYRYDRGFDYWGQGTSVTV VL: DIVLTQSPASLAVSLGQRATISCRASKSVSTSGFNYIHWYQQKPGQPPKLLIYLASNLESGVPARFSGSGSGTDFTLNIHPVEDEDAATYYCQHSRELPLTFGAGTKLEIK	binds	–	–	–
Clone 10 anti-PD-1 antibody (antibody, IgG1, V domains shown, the printed VH ends at ...GTTVTV; also called hybridoma 08090902) VH: DVQLQESGPGLVKPSQSLSLTCTVTGYSITSDYAWNWIRQFPGNKLEWMGYINYSGSTSYNPSLKSRISITRDTSKNQFFLQLNSVTTEDTATYYCARWIGSSAWYFDVWGAGTTVTV VL: DVLMTQTPLSLPVSLGDQASISCRSGQNIVHSNGNTYLEWYLQKPGQSPKLLIYKVSNRFFGVPDRISGSGSGTDFTLKISRVEAEDLGVYFCFQGSHVPFTFGSGTKLEIK	–	binds	binds	binds
Clone 19 anti-PD-1 antibody (antibody, IgG1, V domains shown, the printed VH ends at ...GTLVTV; Constant regions are named only in an embodiment (GenBank D78344, V00807); also called monoclonal antibody produced by clone 19; hybridoma 08090901) VH: QVQLQQSGAELVKPGASVKMSCKAFGYTFTTYPIEWMKQNHGKSLEWIGNFHPYNDDTKYNEKFKGKAKLTVEKSSTTVYLELSRLTSDDSAVYYCARENYGSHGGFVYWGQGTLVTV VL: ENVLTQSPAIMSASPGEKVTMTCRASSSVISSYLHWYQQKSGASPKLWIYSTSNLASGVPDRFSGSGSGTSYSLTISSVEAEDAATYYCQQYNGYPLTFGAGTKLEIK	–	no binding (tested: 10 µg/ml)	binds	no binding (tested: 10 µg/ml)
